# Experimental data reported in publication PMC7953826 (Nature cell biology, 2020).
# Biological target: actin (rabbit skeletal muscle G-actin, polymerised to F-actin) (rabbit, UniProt P68135 1-377)
# Experiment: co-sedimentation
binder,measurement,value
Drosophila dynamin shibire (Shi) (enzyme) MDSLITIVNKLQDAFTSLGVHMQLDLPQIAVVGGQSAGKSSVLENFVGKDFLPRGSGIVTRRPLILQLINGVTEYGEFLHIKGKKFSSFDEIRKEIEDETDRVTGSNKGISNIPINLRVYSPHVLNLTLIDLPGLTKVAIGDQPVDIEQQIKQMIFQFIRKETCLILAVTPANTDLANSDALKLAKEVDPQGVRTIGVITKLDLMDEGTDARDILENKLLPLRRGYIGVVNRSQKDIEGRKDIHQALAAERKFFLSHPSYRHMADRLGTPYLQRVLNQQLTNHIRDTLPGLRDKLQKQMLTLEKEVEEFKHFQPGDASIKTKAMLQMIQQLQSDFERTIEGSGSALVNTNELSGGAKINRIFHERLRFEIVKMACDEKELRREISFAIRNIHGIRVGLFTPDMAFEAIVKRQIALLKEPVIKCVDLVVQELSVVVRMCTAKMSRYPRLREETERIITTHVRQREHSCKEQILLLIDFELAYMNTNHEDFIGFANAQNKSENANKTGTRQLGNQVIRKGHMVIQNLGIMKGGSRPYWFVLTSESISWYKDEDEKEKKFMLPLDGLKLRDIEQGFMSMSRRVTFALFSPDGRNVYKDYKQLELSCETVEDVESWKASFLRAGVYPEKQETQENGDESASEESSSDPQLERQVETIRNLVDSYMKIVTKTTRDMVPKAIMMLIINNAKDFINGELLAHLYASGDQAQMMEESAESATRREEMLRMYRACKDALQIIGDVSMATVSSPLPPPVKNDWLPSGLDNPRLSPPSPGGVRGKPGPPAQSSLGGRNPPLPPSTGRPAPAIPNRPGGGAPPLPGGRPGGSLPPPMLPSRVSGAVGGAIVQQSGANRYVPESMRGQVNQAVGQAAINELSNAFSSRFK,Kd,190 ± 30 nM
